Measured values from PMC11098746 (2024).

B1: ADP347 (protein)
chain: MAATLGPLGSWQQWRRCLSARDGSRMLLLLLLLGSGQGPQQVGAGQTFEYLKREHSLSKPYQGVGTGSSSLWNLMGNAMVMTQYIRLTPDMQSKQGALWNRVPCFLRDWELQVHFKIHGQGKKNLHGDGLAIWYTKDRMQPGPVFGNMDKFVGLGVFVDTYPNEEKQQERVFPYISAMVNNGSLSYDHERDGRPTELGGCTAIVRNLHYDTFLVIRYVKRHLTIMMDIDGKHEWRDCIEVPGVRLPRGYYFGTSSITGDLSDNHDVISLKLFELTVERTPEEEKLHRDVFLPSVDNMKLPEMTAPLPPLSGLA
modifications: bait human Fc-tagged dimer
B2: ADP372 (protein)
chain: MARAMAAAWPLLLVALLVLSWPPPGTGDVVVQAPTQVPGFLGDSVTLPCYLQVPNMEVTHVSQLTWARHGESGSMAVFHQTQGPSYSESKRLEFVAARLGAELRNASLRMFGLRVEDEGNYTCLFVTFPQGSRSVDIWLRVLAKPQNTAEVQKVQLTGEPVPMARCVSTGGRPPAQITWHSDLGGMPNTSQVPGFLSGTVTVTSLWILVPSSQVDGKNVTCKVEHESFEKPQLLTVNLTVYYPPEVSISGYDNNWYLGQNEATLTCDARSNPEPTGYNWSTTMGPLPPFAVAQGAQLLIRPVDKPINTTLICNVTNALGARQAELTVQVKEGPPSEHSGISRN
modifications: bait human Fc-tagged dimer
B3: ADP312 (protein)
chain: MALDRPGEGATMLKTFTVLLFCIRMSLGMTSIVMDPQPELWIESNYPQAPWENITLWCRSPSRISSKFLLLKDKTQMTWIRPSHKTFQVSFLIGALTESNAGLYRCCYWKETGWSKPSKVLELEAPGQLPKPIFWIQAETPALPGCNVNILCHGWLQDLVFMLFKEGYAEPVDYQVPTGTMAIFSIDNLTPEDEGVYICRTHIQMLPTLWSEPSNPLKLVVAGLYPKPTLTAHPGPIMAPGESLNLRCQGPIYGMTFALMRVEDLEKSFYHKKTIKNEANFFFQSLKIQDTGHYLCFYYDASYRGSLLSDVLKIWVTDTFPKTWLLARPSAVVQMGQNVSLRCRGPVDGVGLALYKKGEDKPLQFLDATSIDDNTSFFLNNVTYSDTGIYSCHYLLTWKTSIRMPSHNTVELMVVDKPPKPSLSAWPSTVFKLGKAITLQCRVSHPVLEFSLEWEERETFQKFSVNGDFIISNVDGKGTGTYSCSYRVETHPNIWSHRSEPLKLMGPAGYLTWNYVLN
modifications: bait human Fc-tagged dimer
B4: ADP131 (protein)
chain: MVRMVSWSFHKLKTMKHLLLLLLCVFLVKSQGVNDNEEGFFSARGHRPLDKKREEAPSLRPAPPPISGGGYRARPAKAAATQKKVERKAPDAGGCLHADPDLGVLCPTGCQLQEALLQQERPIRNSVDELNNNVEAVSQTSSSSFQYMYLLKDLWQKRQKQVKDNENVVNEYSSELEKHQLYIDETVNSNIPTNLRVLRSILENLRSKIQKLESDVSAQMEYCRTPCTVSCNIPVVSGKECEEIIRKGGETSEMYLIQPDSSVKPYRVYCDMNTENGGWTVIQNRQDGSVDFGRKWDPYKQGFGNVATNTDGKNYCGLPGEYWLGNDKISQLTRMGPTELLIEMEDWKGDKVKAHYGGFTVQNEANKYQISVNKYRGTAGNALMDGASQLMGENRTMTIHNGMFFSTYDRDNDGWLTSDPRKQCSKEDGGGWWYNRCHAANPNGRYYWGGQYTWDMAKHGTDDGVVWMNWKGSWYSMRKMSMKIRPFFPQQ
modifications: bait human Fc-tagged dimer
B5: ADP153 (protein)
chain: MAGIWTLLPLVLTSVARLSSKSVNAQVTDINSKGLELRKTVTTVETQNLEGLHHDGQFCHKPCPPGERKARDCTVNGDEPDCVPCQEGKEYTDKAHFSSKCRRCRLCDEGHGLEVEINCTRTQNTKCRCKPNFFCNSTVCEHCDPCTKCEHGIIKECTLTSNTKCKEEGS
modifications: bait human Fc-tagged dimer
B6: ADP135 (protein)
chain: MTPPRLFWVWLLVAGTQGVNDGDMRLADGGATNQGRVEIFYRGQWGTVCDNLWDLTDASVVCRALGFENATQALGRAAFGQGSGPIMLDEVQCTGTEASLADCKSLGWLKSNCRHERDAGVVCTNETRSTHTLDLSRELSEALGQIFDSQRGCDLSISVNVQGEDALGFCGHTVILTANLEAQALWKEPGSNVTMSVDAECVPMVRDLLRYFYSRRIDITLSSVKCFHKLASAYGARQLQGYCASLFAILLPQDPSFQMPLDLYAYAVATGDALLEKLCLQFLAWNFEALTQAEAWPSVPTDLLQLLLPRSDLAVPSELALLKAVDTWSWGERASHEEVEGLVEKIRFPMMLPEELFELQFNLSLYWSHEALFQKKTLQALEFHTVPFQLLARYKGLNLTEDTYKPRIYTSPTWSAFVTDSSWSARKSQLVYQSRRGPLVKYSSDYFQAPSDYRYYPYQSFQTPQHPSFLFQDKRVSWSLVYLPTIQSCWNYGFSCSSDELPVLGLTKSGGSDRTIAYENKALMLCEGLFVADVTDFEGWKAAIPSALDTNSSKSTSSFPCPAGHFNGFRTVIRPFYLTNSSGVD
modifications: bait human Fc-tagged dimer
B7: ADP109 (protein)
chain: MGIQGGSVLFGLLLVLAVFCHSGHSLQCYNCPNPTADCKTAVNCSSDFDACLITKAGLQVYNKCWKFEHCNFNDVTTRLRENELTYYCCKKDLCNFNEQLEN
modifications: bait human Fc-tagged dimer
B8: ADP391 (protein)
chain: SSRHVLLQEEVAELQGQVQRTEVARGRLEKRNSDLLLLVDTHKKQIDQKEADYGRLSSRLQAREGLGKRCEDDKVKLQNNISYQMADIHHLKEQLAELRQEFLRQEDQLQDYRKNNTYLVKRLEYESFQCGQQMKELRAQHEENIKKLADQFLEEQKQETQKIQSNDGKELDINNQVVPKNIPKVAENVADKNEEPSSNHIPHGKEQIKRGGDAGMPGIEENDLAKVDDLPPALRKPPISVSQHESHQAISHLPTGQPLSPNMPPDSHINHNGNPGTSKQNPSSPLQRLIPGSNLDSEPRIQTDILKQATKDRVSDFHKLKQSRFFDENESPVDPQHGSKLADYNGDDGNVGEYEADKQAELAYNEEEDGDGGEEDVQGERGPGLHAITMKPTSKFFG
modifications: bait human Fc-tagged dimer
B9: ADP159 (protein)
chain: MAALRPTLLPPSLPLLLLLMLGMGCWAREVLVPEGPLYRVAGTAVSISCNVTGYEGPAQQNFEWFLYRPEAPDTALGIVSTKDTQFSYAVFKSRVVAGEVQVQRLQGDAVVLKIARLQAQDAGIYECHTPSTDTRYLGSYSGKVELRVLPDVLQVSAAPPGPRGRQAPTSPPRMTVHEGQELALGCLARTSTQKHTHLAVSFGRSVPEAPVGRSTLQEVVGIRSDLAVEAGAPYAERLAAGELRLGKEGTDRYRMVVGGAQAGDAGTYHCTAAEWIQDPDGSWAQIAEKRAVLAHVDVQTLSSQLAVTVGPGERRIGPGEPLELLCNVSGALPPAGRHAAYSVGWEMAPAGAPGPGRLVAQLDTEGVGSLGPGYEGRHIAMEKVASRTYRLRLEAARPGDAGTYRCLAKAYVRGSGTRLREAASARSRPLPVHVREEGVVLEAVAWLAGGTVYRGETASLLCNISVRGGPPGLRLAASWWVERPEDGELSSVPAQLVGGVGQDGVAELGVRPGGGPVSVELVGPRSHRLRLHSLGPEDEGVYHCAPSAWVQHADYSWYQAGSARSGPVTVYPYMHALDT
modifications: bait human Fc-tagged dimer

Target: Circumsporozoite protein (CSP) (Plasmodium falciparum (isolate 3D7), UniProt Q7K740)
Sequence (Q7K740 19-374): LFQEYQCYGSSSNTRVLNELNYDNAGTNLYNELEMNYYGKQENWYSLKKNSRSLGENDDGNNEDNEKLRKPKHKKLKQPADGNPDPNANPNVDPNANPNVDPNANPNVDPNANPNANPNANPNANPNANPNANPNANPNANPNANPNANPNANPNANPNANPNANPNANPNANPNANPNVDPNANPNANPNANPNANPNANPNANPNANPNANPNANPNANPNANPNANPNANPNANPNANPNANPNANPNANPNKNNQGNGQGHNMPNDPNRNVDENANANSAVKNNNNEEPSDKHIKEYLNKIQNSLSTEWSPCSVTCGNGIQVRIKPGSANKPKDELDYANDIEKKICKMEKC
Test: AVEXIS screen signal:noise (double-corrected)

Row | Binder | binding score
1 | B1 | 0.741
2 | B2 | 1.04
3 | B3 | 0.61
4 | B4 | 0.806
5 | B5 | 1.01
6 | B6 | 0.514
7 | B7 | 1.68
8 | B8 | 0.592
9 | B9 | 0.885
